Reference: the supplement of paper PMC10724198
± gives the standard deviation of the averaged measurements.
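Also: PSI is a weighted mean of sequencing reads over stability bins, variants kept only with over 10 reads, mCherry proximal and sfGFP distal, peptide attached via GGGS linker.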

These sequences were tested on Saccharomyces cerevisiae (assay: protein stability index of tFT-peptide fusion (C-terminal peptide) (PSI (0-1 scale)); higher = more stable (slower turnover)). Settings: genetic background: cdc34-1; temperature: 37 C.
Protocol: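 MPS profiling in S. cerevisiae of the tFT-X12 degron library: putative degron peptides plus stable controls, 12 aa, fused to the C-terminus of a sfGFP-mCherry timer. Cells are FACS-sorted into 8 mCherry/sfGFP bins and deep-sequenced. PSI runs from 0 (unstable) to 1 (stable). Backgrounds are wild type, das1Δ and doa10Δ at 30 °C, and wild type, das1Δ, cdc34-1 and cdc53-1 at 37 °C; 2-3 technical replicates each.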
GVVWPLGWVWVE showed a protein stability index of 0.699 ± 0.016. GWRFCVFIYVHR was tested, and the protein stability index was 0.0703 ± 0.011. GWVVVVCGVCCG gave a protein stability index of 0.178 ± 0.0072. For GYSMPVSFFFAL, the protein stability index was 0.669 ± 0.057. HFASPPAPRSNL was tested, and the protein stability index was 0.799 ± 0.051. HFLLAFMLCFGQ showed a protein stability index of 0.4512 ± 0.0045. Work on HLILWLFFVIVF yielded a protein stability index of 0.237 ± 0.012. HLRWYITGIVWF showed a protein stability index of 0.4885 ± 0.0024. HPRPRPPPLPPP was tested, and the protein stability index was 0.4633 ± 0.00058. Sequence HRARILLIRICP has a protein stability index of 0.486 ± 0.024. HRFCAPSLSASD was tested, and the protein stability index was 0.675 ± 0.007. In the case of HVLALIFLYIPD, the protein stability index is reported as 0.43 ± 0.045. HWVRLSSLAFVS gave a protein stability index of 0.2245 ± 0.0018. IACISCLLCVVV gave a protein stability index of 0.608 ± 0.042. IEVACLLTAFCD gave a protein stability index of 0.22 ± 0.026. Work on IFCRCNSTVLLI yielded a protein stability index of 0.547 ± 0.035. With IFFYQLYVDRLC the protein stability index was 0.227 ± 0.05. For IFSGCRIALSVF, the protein stability index was 0.0412 ± 0.013. IFSTQMVRFSLL gave a protein stability index of 0.629 ± 0.052. In the case of IFVFVSFPSCVL, the protein stability index is reported as 0.603 ± 0.062. In the case of ILFWSLLVSTIR, the protein stability index is reported as 0.13 ± 0.031. ILRAGITYVYAV gave a protein stability index of 0.515 ± 0.014. In the case of ILVFHFWPFLVR, the protein stability index is reported as 0.411 ± 0.046. For IPGGRPLLVEVR, the protein stability index was 0.339 ± 0.02. IRHALHFRVVAV showed a protein stability index of 0.505 ± 0.035. In the case of IRWCLVSVFYVV, the protein stability index is reported as 0.214 ± 0.028. Sequence ISAVLFFLYLSF has a protein stability index of 0.163 ± 0.008. With IVVSSRFLGFFC the protein stability index was 0.53 ± 0.073. For IWRGGSAVPMIC, the protein stability index was 0.627 ± 0.075. In the case of IYTLIINKSKAQ, the protein stability index is reported as 0.686 ± 0.024. KDIFQIYTLYVF was tested, and the protein stability index was 0.407 ± 0.011. KFWVVLIEIKYH showed a protein stability index of 0.0696 ± 0.0057. KGSKGELGVHVG showed a protein stability index of 0.686 ± 0.03.

Same assay, conditions: genetic background: cdc53-1; temperature: 37 C
GVVWPLGWVWVE showed a protein stability index of 0.7315 ± 0.0022. GWRFCVFIYVHR showed a protein stability index of 0.0688 ± 0.0038. In the case of GWVVVVCGVCCG, the protein stability index is reported as 0.22 ± 0.033. GYSMPVSFFFAL was tested, and the protein stability index was 0.779 ± 0.012. HFASPPAPRSNL showed a protein stability index of 0.819 ± 0.023. For HFLLAFMLCFGQ, the protein stability index was 0.476 ± 0.0097. With HLILWLFFVIVF the protein stability index was 0.193 ± 0.047. For HPRPRPPPLPPP, the protein stability index was 0.546 ± 0.019. Sequence HRARILLIRICP has a protein stability index of 0.517 ± 0.011. Sequence HRFCAPSLSASD has a protein stability index of 0.722 ± 0.013. HVLALIFLYIPD gave a protein stability index of 0.55 ± 0.032. Sequence HWVRLSSLAFVS has a protein stability index of 0.289 ± 0.011. Sequence IACISCLLCVVV has a protein stability index of 0.649 ± 0.038. IEVACLLTAFCD showed a protein stability index of 0.262 ± 0.0062. Work on IFCRCNSTVLLI yielded a protein stability index of 0.633 ± 0.013. IFFYQLYVDRLC showed a protein stability index of 0.292 ± 0.0067. Sequence IFSGCRIALSVF has a protein stability index of 0.052 ± 0.021. For IFSTQMVRFSLL, the protein stability index was 0.7324 ± 0.0061. In the case of IFVFVSFPSCVL, the protein stability index is reported as 0.644 ± 0.022. With ILFWSLLVSTIR the protein stability index was 0.223 ± 0.056. In the case of ILRAGITYVYAV, the protein stability index is reported as 0.544 ± 0.036. Work on ILVFHFWPFLVR yielded a protein stability index of 0.435 ± 0.015. For IPGGRPLLVEVR, the protein stability index was 0.384 ± 0.018. IRHALHFRVVAV gave a protein stability index of 0.545 ± 0.016. IRWCLVSVFYVV gave a protein stability index of 0.364 ± 0.033. Sequence ISAVLFFLYLSF has a protein stability index of 0.108 ± 0.019. For IVVSSRFLGFFC, the protein stability index was 0.701 ± 0.07. Work on IWRGGSAVPMIC yielded a protein stability index of 0.686 ± 0.022. Sequence IYTLIINKSKAQ has a protein stability index of 0.685 ± 0.011. KDIFQIYTLYVF showed a protein stability index of 0.4611 ± 0.0014. KFWVVLIEIKYH gave a protein stability index of 0.132 ± 0.03. With KGSKGELGVHVG the protein stability index was 0.712 ± 0.013.

Same assay, conditions: genetic background: das1 deletion; temperature: 30 C
GVVWPLGWVWVE was tested, and the protein stability index was 0.614 ± 0.012. For GWRFCVFIYVHR, the protein stability index was 0.115 ± 0.033. With GWVVVVCGVCCG the protein stability index was 0.208 ± 0.026. Sequence GYSMPVSFFFAL has a protein stability index of 0.616 ± 0.017. For HFASPPAPRSNL, the protein stability index was 0.762 ± 0.03. For HFLLAFMLCFGQ, the protein stability index was 0.359 ± 0.039. HLILWLFFVIVF gave a protein stability index of 0.216 ± 0.024. With HLRWYITGIVWF the protein stability index was 0.413 ± 0.11. HPRPRPPPLPPP gave a protein stability index of 0.504 ± 0.006. In the case of HRARILLIRICP, the protein stability index is reported as 0.411 ± 0.024. HRFCAPSLSASD gave a protein stability index of 0.6628 ± 0.0047. With HVLALIFLYIPD the protein stability index was 0.33 ± 0.037. Sequence HWVRLSSLAFVS has a protein stability index of 0.289 ± 0.036. In the case of IACISCLLCVVV, the protein stability index is reported as 0.479 ± 0.025. In the case of IEVACLLTAFCD, the protein stability index is reported as 0.257 ± 0.028. Sequence IFCRCNSTVLLI has a protein stability index of 0.483 ± 0.021. IFFYQLYVDRLC showed a protein stability index of 0.229 ± 0.035. IFSGCRIALSVF showed a protein stability index of 0.188 ± 0.018. Sequence IFSTQMVRFSLL has a protein stability index of 0.662 ± 0.0074. For IFVFVSFPSCVL, the protein stability index was 0.56 ± 0.041. With ILFWSLLVSTIR the protein stability index was 0.174 ± 0.034. Work on ILRAGITYVYAV yielded a protein stability index of 0.325 ± 0.038. ILVFHFWPFLVR showed a protein stability index of 0.351 ± 0.018. Sequence IPGGRPLLVEVR has a protein stability index of 0.254 ± 0.044. Sequence IRHALHFRVVAV has a protein stability index of 0.432 ± 0.015. For IRWCLVSVFYVV, the protein stability index was 0.245 ± 0.033. For ISAVLFFLYLSF, the protein stability index was 0.24 ± 0.018. Work on IVVSSRFLGFFC yielded a protein stability index of 0.62 ± 0.032. With IWRGGSAVPMIC the protein stability index was 0.572 ± 0.025. In the case of IYTLIINKSKAQ, the protein stability index is reported as 0.626 ± 0.046. With KDIFQIYTLYVF the protein stability index was 0.329 ± 0.035. In the case of KFWVVLIEIKYH, the protein stability index is reported as 0.159 ± 0.036. KGSKGELGVHVG gave a protein stability index of 0.63 ± 0.016.

Same assay, conditions: genetic background: das1 deletion; temperature: 37 C
With GVVWPLGWVWVE the protein stability index was 0.7383 ± 0.0066. GWRFCVFIYVHR showed a protein stability index of 0.196 ± 0.012. Sequence GWVVVVCGVCCG has a protein stability index of 0.307 ± 0.016. GYSMPVSFFFAL showed a protein stability index of 0.745 ± 0.0082. For HFASPPAPRSNL, the protein stability index was 0.81 ± 0.016. In the case of HFLLAFMLCFGQ, the protein stability index is reported as 0.504 ± 0.0076. In the case of HLILWLFFVIVF, the protein stability index is reported as 0.333 ± 0.0038. HLRWYITGIVWF gave a protein stability index of 0.671 ± 0.17. With HPRPRPPPLPPP the protein stability index was 0.523 ± 0.021. For HRARILLIRICP, the protein stability index was 0.64 ± 0.019. Work on HRFCAPSLSASD yielded a protein stability index of 0.7288 ± 0.0054. For HVLALIFLYIPD, the protein stability index was 0.5422 ± 0.0044. In the case of HWVRLSSLAFVS, the protein stability index is reported as 0.233 ± 0.0082. For IACISCLLCVVV, the protein stability index was 0.607 ± 0.017. For IEVACLLTAFCD, the protein stability index was 0.225 ± 0.0027. IFCRCNSTVLLI gave a protein stability index of 0.5959 ± 0.0016. Sequence IFFYQLYVDRLC has a protein stability index of 0.412 ± 0.011. Sequence IFSGCRIALSVF has a protein stability index of 0.165 ± 0.012. IFSTQMVRFSLL was tested, and the protein stability index was 0.7692 ± 0.0033. Sequence IFVFVSFPSCVL has a protein stability index of 0.627 ± 0.0096. For ILFWSLLVSTIR, the protein stability index was 0.263 ± 0.0027. ILRAGITYVYAV showed a protein stability index of 0.5463 ± 0.0033. ILVFHFWPFLVR showed a protein stability index of 0.523 ± 0.018. For IPGGRPLLVEVR, the protein stability index was 0.518 ± 0.074. With IRHALHFRVVAV the protein stability index was 0.568 ± 0.0082. With IRWCLVSVFYVV the protein stability index was 0.444 ± 0.01. In the case of ISAVLFFLYLSF, the protein stability index is reported as 0.326 ± 0.0042. IVVSSRFLGFFC showed a protein stability index of 0.742 ± 0.0077. IWRGGSAVPMIC gave a protein stability index of 0.721 ± 0.013. IYTLIINKSKAQ gave a protein stability index of 0.696 ± 0.072. Sequence KDIFQIYTLYVF has a protein stability index of 0.502 ± 0.023. With KFWVVLIEIKYH the protein stability index was 0.35 ± 0.092. Work on KGSKGELGVHVG yielded a protein stability index of 0.728 ± 0.0034.
